Assay results as given in publication PMC10397247.

Key:
P4 = target: T1, P4; assay: two-hybrid library CCmax; settings: mean of both orientations;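 note: natural log of median RNA to DNA barcode read ratio; higher means stronger binding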
T1 chain: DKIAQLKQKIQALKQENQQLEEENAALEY

P4SN = target: T2, P4SN; assay: two-hybrid library CCmax; settings: mean of both orientations;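 note: natural log of median RNA to DNA barcode read ratio; higher means stronger binding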
T2 chain: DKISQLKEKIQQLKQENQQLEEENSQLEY

P8bHq = target: T3, P8bHq; assay: two-hybrid library CCNG1;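 note: natural log of median RNA to DNA barcode read ratio; higher means stronger binding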
T3 chain: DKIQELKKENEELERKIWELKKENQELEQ

P5bHq = target: T4, P5bHq; assay: two-hybrid library CCNG1;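 note: natural log of median RNA to DNA barcode read ratio; higher means stronger binding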
T4 chain: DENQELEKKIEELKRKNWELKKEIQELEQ

P6bHq = target: T5, P6bHq; assay: two-hybrid library CCNG1;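 note: natural log of median RNA to DNA barcode read ratio; higher means stronger binding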
T5 chain: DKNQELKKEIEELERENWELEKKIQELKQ

P2bHq = target: T6, P2bHq; assay: two-hybrid library CCNG1;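 note: natural log of median RNA to DNA barcode read ratio; higher means stronger binding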
T6 chain: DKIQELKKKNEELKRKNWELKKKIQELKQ

P9bHq = target: T7, P9bHq; assay: two-hybrid library CCNG1
T7 chain: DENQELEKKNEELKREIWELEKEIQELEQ

P7bHq = target: T8, P7bHq; assay: two-hybrid library CCNG1
T8 chain: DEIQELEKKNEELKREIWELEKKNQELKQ

P4bHq = target: T9, P4bHq; assay: two-hybrid library CCNG1
T9 chain: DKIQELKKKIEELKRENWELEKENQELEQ

P3bHq = target: T10, P3bHq; assay: two-hybrid library CCNG1
T10 chain: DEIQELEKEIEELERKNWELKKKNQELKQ

P1bHq = target: T11, P1bHq; assay: two-hybrid library CCNG1
T11 chain: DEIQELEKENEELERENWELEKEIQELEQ

O14-bN = target: T12, O14-bN; assay: two-hybrid library CCNG1
T12 chain: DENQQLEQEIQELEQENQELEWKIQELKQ

O3-bN = target: T13, O3-bN; assay: two-hybrid library CCNG1
T13 chain: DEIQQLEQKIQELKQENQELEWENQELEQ

O13-bN = target: T14, O13-bN; assay: two-hybrid library CCNG1
T14 chain: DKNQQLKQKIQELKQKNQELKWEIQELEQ

O16-bN = target: T15, O16-bN; assay: two-hybrid library CCNG1
T15 chain: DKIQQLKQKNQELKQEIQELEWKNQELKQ

O11-bN = target: T16, O11-bN; assay: two-hybrid library CCNG1
T16 chain: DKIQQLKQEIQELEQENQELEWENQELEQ

O7-bN = target: T17, O7-bN; assay: two-hybrid library CCNG1
T17 chain: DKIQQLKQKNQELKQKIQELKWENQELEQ

O15-bN = target: T18, O15-bN; assay: two-hybrid library CCNG1
T18 chain: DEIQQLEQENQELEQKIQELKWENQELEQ

O8-bN = target: T19, O8-bN; assay: two-hybrid library CCNG1
T19 chain: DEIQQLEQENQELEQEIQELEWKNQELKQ

O5-bN = target: T20, O5-bN; assay: two-hybrid library CCNG1
T20 chain: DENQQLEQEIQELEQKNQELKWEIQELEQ

O9-bN = target: T21, O9-bN; assay: two-hybrid library CCNG1
T21 chain: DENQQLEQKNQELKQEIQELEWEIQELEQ

O2-bN = target: T22, O2-bN; assay: two-hybrid library CCNG1
T22 chain: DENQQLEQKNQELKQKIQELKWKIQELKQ

O4-bN = target: T23, O4-bN; assay: two-hybrid library CCNG1
T23 chain: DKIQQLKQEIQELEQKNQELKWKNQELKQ

O6-bN = target: T24, O6-bN; assay: two-hybrid library CCNG1
T24 chain: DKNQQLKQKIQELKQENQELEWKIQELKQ

O12-bN = target: T25, O12-bN; assay: two-hybrid library CCNG1
T25 chain: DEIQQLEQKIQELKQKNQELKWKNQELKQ

Q: Which results are given for DEIQQLEEEIAQLEWKNAALKEKNAQLKA [P3_WA]?
A: interaction score (P4): 1.5; interaction score (P4SN): 1.9

Q: How did the interaction score (P8bHq) turn out when DEIQELEKENEELERENWELEKEIQELEQ [P1bHq] was run?
A: Its interaction score is -0.272.

Q: What about the interaction score (P5bHq) of the same binder?
A: The interaction score was -0.887.

Q: And the interaction score (P6bHq)?
A: The interaction score was -0.273.

Q: And the interaction score (P2bHq)?
A: Its interaction score is 1.87.

Q: And the interaction score (P9bHq)?
A: The interaction score was -1.78.

Q: What about the interaction score (P7bHq) of the same binder?
A: Its interaction score is -0.288.

Q: And the interaction score (P4bHq)?
A: The interaction score was -0.52.

Q: What about the interaction score (P3bHq) of the same binder?
A: Its interaction score is -1.03.

Q: What about the interaction score (P1bHq) of the same binder?
A: Its interaction score is -0.606.

Q: With DKIQQLKQEIQELEQENQELEWENQELEQ [O11-bN] as the binder, how does the interaction score (O14-bN) read?
A: The interaction score was -0.639.

Q: What about the interaction score (O3-bN) of the same binder?
A: The interaction score was -0.437.

Q: And the interaction score (O13-bN)?
A: Its interaction score is -0.808.

Q: And the interaction score (O16-bN)?
A: The interaction score was -1.91.

Q: What about the interaction score (O11-bN) of the same binder?
A: Its interaction score is -0.191.

Q: And the interaction score (O7-bN)?
A: Its interaction score is -1.3.

Q: What about the interaction score (O15-bN) of the same binder?
A: The interaction score was -0.577.

Q: What about the interaction score (O8-bN) of the same binder?
A: Its interaction score is -1.26.

Q: And the interaction score (O5-bN)?
A: The interaction score was -1.06.

Q: What about the interaction score (O9-bN) of the same binder?
A: The interaction score was -0.813.

Q: And the interaction score (O2-bN)?
A: The interaction score was -0.23.

Q: What about the interaction score (O4-bN) of the same binder?
A: Its interaction score is 0.401.

Q: And the interaction score (O6-bN)?
A: The interaction score was -0.927.

Q: What about the interaction score (O12-bN) of the same binder?
A: The interaction score was 0.971.
